According to paper PMC6901440:

Assays:
[1] = target: Flag-MLKL T357D/S358E phosphorylation mimic (human) (UniProt Q8NB16); experiment: immunoblot of oligomers in cytosol and membrane fractions; HEK-293T cells transfected with Flag-MLKL constructs, with or without RIP3, Bcl-2 or Bcl-2 G145A; Triton X-114 detergent phase separation; oligomers seen by immunoblot (gel conditions not told)
Bcl-2 = Bcl-2 (UniProt P10415); experiment: anti-Flag co-IP, Bcl-2 blot; settings: reference: wild-type MLKL with RIP3; sites T357,S358

Chain of Flag-MLKL T357D/S358E phosphorylation mimic (human) (Q8NB16 whole entry T357D/S358E): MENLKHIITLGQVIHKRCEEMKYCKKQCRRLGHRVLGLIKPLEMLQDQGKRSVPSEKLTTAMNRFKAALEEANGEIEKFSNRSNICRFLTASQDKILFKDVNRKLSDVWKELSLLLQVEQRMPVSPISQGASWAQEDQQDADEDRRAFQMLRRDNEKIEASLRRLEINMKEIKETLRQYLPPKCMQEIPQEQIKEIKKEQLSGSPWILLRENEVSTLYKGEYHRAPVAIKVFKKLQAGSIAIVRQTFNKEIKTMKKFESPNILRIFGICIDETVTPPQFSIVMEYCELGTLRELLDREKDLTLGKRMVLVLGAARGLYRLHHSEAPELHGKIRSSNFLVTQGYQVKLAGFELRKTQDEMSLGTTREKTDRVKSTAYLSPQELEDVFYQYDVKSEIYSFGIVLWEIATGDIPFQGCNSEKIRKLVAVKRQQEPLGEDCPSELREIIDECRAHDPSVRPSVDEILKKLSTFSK
Chain of Bcl-2 (transfected, HEK-293T) (P10415 whole entry): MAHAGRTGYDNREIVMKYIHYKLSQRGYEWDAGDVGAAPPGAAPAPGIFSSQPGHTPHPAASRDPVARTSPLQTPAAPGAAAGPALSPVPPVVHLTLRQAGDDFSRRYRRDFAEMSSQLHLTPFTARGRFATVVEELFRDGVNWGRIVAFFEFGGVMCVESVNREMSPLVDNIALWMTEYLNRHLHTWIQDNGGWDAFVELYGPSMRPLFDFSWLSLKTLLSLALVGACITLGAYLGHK

Substance | percent decrease of MLKL oligomerization [1] [%] | binding against the reference (Bcl-2)
Bcl-2 (transfected, HEK-293T) (from UniProt P10415 1-239) | 30 | 
MLKL (from UniProt Q8NB16) T357A/S358A with RIP3 |  | weaker
